The values that follow come from PMC7374170, “TRIB3-EGFR interaction promotes lung cancer progression and defines a therapeutic target” (Nature Communications, 2020).

This test concerns the target TRIB3 (tribbles pseudokinase 3), purified protein (UniProt Q96RU7). Nature of the test: FP.

Chain of TRIB3 (tribbles pseudokinase 3), purified protein (Q96RU7 whole entry): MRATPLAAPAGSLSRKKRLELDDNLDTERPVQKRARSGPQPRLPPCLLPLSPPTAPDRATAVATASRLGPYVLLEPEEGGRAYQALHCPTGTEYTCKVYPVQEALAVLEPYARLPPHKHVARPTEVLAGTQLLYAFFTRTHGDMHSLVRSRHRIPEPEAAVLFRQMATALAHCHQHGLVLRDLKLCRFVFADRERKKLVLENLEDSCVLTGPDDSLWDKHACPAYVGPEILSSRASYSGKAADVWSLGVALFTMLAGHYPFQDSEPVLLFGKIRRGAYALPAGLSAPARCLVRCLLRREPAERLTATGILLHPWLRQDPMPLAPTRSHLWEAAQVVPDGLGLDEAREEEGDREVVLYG

Regarding “SAH-JGZ4, stapled JGZ peptide (from UniProt P00533)”, the IC50 was determined as 90.3 nM and the inhibition constant (Ki) is 27.7 nM.
